The conditions of this data set: Mus musculus, pH 7.4, 20 °C, Tris-HCl 20 mM, whole UniProt chain shown.

“And” between values parts separate entries of the source, which are not always exact repeats. Equal entries are not always repeated.

B1: Adenosine deaminase wild type, P03958 (protein)
chain: MAQTPAFNKPKVELHVHLDGAIKPETILYFGKKRGIALPADTVEELRNIIGMDKPLSLPGFLAKFDYYMPVIAGCREAIKRIAYEFVEMKAKEGVVYVEVRYSPHLLANSKVDPMPWNQTEGDVTPDDVVDLVNQGLQEGEQAFGIKVRSILCCMRHQPSWSLEVLELCKKYNQKTVVAMDLAGDETIEGSSLFPGHVEAYEGAVKNGIHRTVHAGEVGSPEVVREAVDILKTERVGHGYHTIEDEALYNRLLKENMHFEVCPWSSYLTGAWDPKTTHAVVRFKNDKANYSLNTDDPLIFKSTLDTDYQMTKKDMGFTEEEFKRLNINAAKSSFLPEEEKKELLERLYREYQ
B1: the denaturant m value (GdnHCl, Fluorescence) came out at 2.08 kcal/mol/M and the denaturant m value (Urea, Fluorescence) came out at 0.79 kcal/mol/M. The “denaturant midpoint (higher = more stable)” value amounted to 1.91 M (GdnHCl, Fluorescence); 0.68 M (Urea, Enzyme assay); 6.19 M (Urea, Fluorescence). Also, the unfolding free energy is, setting by setting: (GdnHCl, Fluorescence) 3.98 kcal/mol; (Urea, CD) 5.78 kcal/mol and 7.39 kcal/mol; (Urea, Fluorescence) 4.89 kcal/mol.

The values are drawn from FireProtDB (doi:10.1016/j.jmb.2004.10.057).
